# Test results taken from patent US20060275803A1, “Rat and mouse members of the CRISP family of genes” (Wyeth, priority 2005, published 2006).
# T1: substrate peptide B22 (APQRFGKK) (not fully specified)
# T1 chain: APQRFGKK
# T2: substrate peptide E19 (RLGREGVQ) (not fully specified)
# T2 chain: RLGREGVQ
# T3: substrate peptide J21 (LRNRAQSG) (not fully specified)
# T3 chain: LRNRAQSG
# T4: substrate peptide M02 (EKQRIIGG) (not fully specified)
# T4 chain: EKQRIIGG
# T5: substrate peptide N05 (RARRELAP) (not fully specified)
# T5 chain: RARRELAP
# T6: substrate peptide N08 (RKRRAPLA) (not fully specified)
# T6 chain: RKRRAPLA
# T7: substrate peptide M09 (GSQHIRAE) (not fully specified)
# T7 chain: GSQHIRAE
# T8: substrate peptide H17 (NGLRADPM) (not fully specified)
# T8 chain: NGLRADPM
# T9: substrate peptide D06 (ALAEAMKK) (not fully specified)
# T9 chain: ALAEAMKK
# T10: substrate peptide K11 (VIPRSGGS) (not fully specified)
# T10 chain: VIPRSGGS
# T11: substrate peptide N12 (AKRAASQI) (not fully specified)
# T11 chain: AKRAASQI
# T12: substrate peptide M07 (GLQRALEI) (not fully specified)
# T12 chain: GLQRALEI
# T13: substrate peptide N10 (FYRADQPR) (not fully specified)
# T13 chain: FYRADQPR
# T14: substrate peptide B23 (RVKRYRQS) (not fully specified)
# T14 chain: RVKRYRQS
# T15: substrate peptide H03 (RNKRAVQG) (not fully specified)
# T15 chain: RNKRAVQG
# T16: substrate peptide B17 (RQRYGKRS) (not fully specified)
# T16 chain: RQRYGKRS
# T17: substrate peptide C01 (GPQGLLGA) (not fully specified)
# T17 chain: GPQGLLGA
# T18: substrate peptide O22 (GGVRGPRV) (not fully specified)
# T18 chain: GGVRGPRV
# T19: substrate peptide A04 (RGARARLG) (not fully specified)
# T19 chain: RGARARLG
# T20: substrate peptide L16 (KTPRWGG) (not fully specified)
# T20 chain: KTPRWGG
# T21: substrate peptide C23 (RDAQAHPG) (not fully specified)
# T21 chain: RDAQAHPG
# T22: substrate peptide H01 (RKKRSTKK) (not fully specified)
# T22 chain: RKKRSTKK
# T23: substrate peptide A05 (SYRKVLGQ) (not fully specified)
# T23 chain: SYRKVLGQ
# T24: substrate peptide O23 (KNVAMQKG) (not fully specified)
# T24 chain: KNVAMQKG
# T25: substrate peptide A10 (SAARPAPP) (not fully specified)
# T25 chain: SAARPAPP
# T26: substrate peptide H07 (RVKRQVRS) (not fully specified)
# T26 chain: RVKRQVRS
# T27: substrate peptide G24 (RRKRSTRE) (not fully specified)
# T27 chain: RRKRSTRE
# T28: substrate peptide B11 (AAGVAPLS) (not fully specified)
# T28 chain: AAGVAPLS
# T29: substrate peptide M16 (RSRREADL) (not fully specified)
# T29 chain: RSRREADL
# T30: substrate peptide C16 (RVLGLKAH) (not fully specified)
# T30 chain: RVLGLKAH
# T31: substrate peptide A09 (RMRRYADA) (not fully specified)
# T31 chain: RMRRYADA
# T32: substrate peptide B20 (PQRFGRNT) (not fully specified)
# T32 chain: PQRFGRNT
# T33: substrate peptide A01 (WQGGRRKF) (not fully specified)
# T33 chain: WQGGRRKF
# T34: substrate peptide M18 (VHRDMAAR) (not fully specified)
# T34 chain: VHRDMAAR
# T35: substrate peptide H02 (RAKRSVHF) (not fully specified)
# T35 chain: RAKRSVHF
# T36: substrate peptide O16 (AATRRQAV) (not fully specified)
# T36 chain: AATRRQAV
# T37: substrate peptide J03 (PQLHSTGG) (not fully specified)
# T37 chain: PQLHSTGG
# T38: substrate peptide N17 (RKRRAVLT) (not fully specified)
# T38 chain: RKRRAVLT
# T39: substrate peptide H11 (RRLLRAIP) (not fully specified)
# T39 chain: RRLLRAIP
# B1: native rCRISPA (rCRISP1) purified from epididymis in the presence of DANA (protein)
# chain: QDTTDEWDRDLENLSTTKLSVQEEIINKHNQLRRTVSPSGSDLLRVEWDHDAYVNAQKWANRCIYNHSPLQHRTTTLKCGENLFMANYPASWSSVIQDWYDESLDFVFGFGPKKVGVKVGHYTQVVWNSTFLVACGVAECPDQPLKYFYVCHYCPGGNYVGRLYSPYTEGEPCDSCPGNCEDGLCTNSCEYEDNYSNCGDLKKMVSCDDPLLKEGCRASCFCEDKIH
# How the values were obtained:
# [1] = target: T1, substrate peptide B22 (APQRFGKK)
# [2] = target: T2, substrate peptide E19 (RLGREGVQ)
# [3] = target: T3, substrate peptide J21 (LRNRAQSG)
# [4] = target: T4, substrate peptide M02 (EKQRIIGG)
# [5] = target: T5, substrate peptide N05 (RARRELAP)
# [6] = target: T6, substrate peptide N08 (RKRRAPLA)
# [7] = target: T7, substrate peptide M09 (GSQHIRAE)
# [8] = target: T8, substrate peptide H17 (NGLRADPM)
# [9] = target: T9, substrate peptide D06 (ALAEAMKK)
# [10] = target: T10, substrate peptide K11 (VIPRSGGS)
# [11] = target: T11, substrate peptide N12 (AKRAASQI)
# [12] = target: T12, substrate peptide M07 (GLQRALEI)
# [13] = target: T13, substrate peptide N10 (FYRADQPR)
# [14] = target: T14, substrate peptide B23 (RVKRYRQS)
# [15] = target: T15, substrate peptide H03 (RNKRAVQG)
# [16] = target: T16, substrate peptide B17 (RQRYGKRS)
# [17] = target: T17, substrate peptide C01 (GPQGLLGA)
# [18] = target: T18, substrate peptide O22 (GGVRGPRV)
# [19] = target: T19, substrate peptide A04 (RGARARLG)
# [20] = target: T20, substrate peptide L16 (KTPRWGG)
# [21] = target: T21, substrate peptide C23 (RDAQAHPG)
# [22] = target: T22, substrate peptide H01 (RKKRSTKK)
# [23] = target: T23, substrate peptide A05 (SYRKVLGQ)
# [24] = target: T24, substrate peptide O23 (KNVAMQKG)
# [25] = target: T25, substrate peptide A10 (SAARPAPP)
# [26] = target: T26, substrate peptide H07 (RVKRQVRS)
# [27] = target: T27, substrate peptide G24 (RRKRSTRE)
# [28] = target: T28, substrate peptide B11 (AAGVAPLS)
# [29] = target: T29, substrate peptide M16 (RSRREADL)
# [30] = target: T30, substrate peptide C16 (RVLGLKAH)
# [31] = target: T31, substrate peptide A09 (RMRRYADA)
# [32] = target: T32, substrate peptide B20 (PQRFGRNT)
# [33] = target: T33, substrate peptide A01 (WQGGRRKF)
# [34] = target: T34, substrate peptide M18 (VHRDMAAR)
# [35] = target: T35, substrate peptide H02 (RAKRSVHF)
# [36] = target: T36, substrate peptide O16 (AATRRQAV)
# [37] = target: T37, substrate peptide J03 (PQLHSTGG)
# [38] = target: T38, substrate peptide N17 (RKRRAVLT)
# [39] = target: T39, substrate peptide H11 (RRLLRAIP)
# [40] = tested on: substrate peptide; assay: Protease activity of rCRISPA purified with or without the sialidase inhibitor DANA; type: biochemical, rat
# Text: The conservation of protease activity between CRISPA and CRISPC is predicted from both the primary amino acid sequence of the PR-1 domain and the overall domain structure conserved among Tex31 and all mammalian CRISPs. The PR-1 domain of Tex31 is hypothesized to contain a basic substrate recognition site with the predicted catalytic residues His130 and Glu115. The mammalian CRISPs have these residues conserved in the PR-1 domain. […] A sialylated glycan on rCRISPA may be influencing the protein's native confirmation and ability to recognize, bind, or cleave its substrate. If rat CRISPC is glycosylated and sialylated, the glycan may also be involved in the protein's confirmation and ability to recognize, bind, or cleave its substrate.
# A protocol for the purification of rCRISPA (rCRISP1) from the epididymis was published in 1997 (Hall J. C. & Tubbs C. E., Prep. Biochem. Biotechnol. 27:239-51 (1997), incorporated herein by reference). Applicants have modified this protocol to include the following amounts of 2,3-dehydro-2-deoxy-N-acetyineuraminic acid (DANA) as an inhibitor of sialidase activity in each of the following buffers:
# Protease activity was determined by measuring fluorescence (as per the manufacturer's protocol) at ten minute intervals for 130 minutes in the following assay conditions: […] substrate peptide, […] rCRISPA, 100 mM NaCl, 25 mM Tris-Cl, pH 7.5. […]
molecule,measurement,setting,value
B1,protease activity (fluorescence of substrate peptide),[1],Cleaved peptides B22 (APQRFGKK)
same,protease activity (fluorescence of substrate peptide),[2],Uncleaved peptides E19 (RLGREGVQ)
same,protease activity (fluorescence of substrate peptide),[3],Cleaved peptides J21 (LRNRAQSG)
same,protease activity (fluorescence of substrate peptide),[4],Cleaved peptides M02 (EKQRIIGG)
same,protease activity (fluorescence of substrate peptide),[5],Cleaved peptides N05 (RARRELAP)
same,protease activity (fluorescence of substrate peptide),[6],Cleaved peptides N08 (RKRRAPLA)
same,protease activity (fluorescence of substrate peptide),[7],Uncleaved peptides M09 (GSQHIRAE)
same,protease activity (fluorescence of substrate peptide),[8],Cleaved peptides H17 (NGLRADPM)
same,protease activity (fluorescence of substrate peptide),[9],Uncleaved peptides D06 (ALAEAMKK)
same,protease activity (fluorescence of substrate peptide),[10],Uncleaved peptides K11 (VIPRSGGS)
same,protease activity (fluorescence of substrate peptide),[11],Cleaved peptides N12 (AKRAASQI)
same,protease activity (fluorescence of substrate peptide),[12],Uncleaved peptides M07 (GLQRALEI)
same,protease activity (fluorescence of substrate peptide),[13],Uncleaved peptides N10 (FYRADQPR)
same,protease activity (fluorescence of substrate peptide),[14],Cleaved peptides B23 (RVKRYRQS)
same,protease activity (fluorescence of substrate peptide),[15],Cleaved peptides H03 (RNKRAVQG)
same,protease activity (fluorescence of substrate peptide),[16],Cleaved peptides B17 (RQRYGKRS)
same,protease activity (fluorescence of substrate peptide),[17],Uncleaved peptides C01 (GPQGLLGA)
same,protease activity (fluorescence of substrate peptide),[18],Cleaved peptides O22 (GGVRGPRV)
same,protease activity (fluorescence of substrate peptide),[19],Cleaved peptides A04 (RGARARLG)
same,protease activity (fluorescence of substrate peptide),[20],Uncleaved peptides L16 (KTPRWGG)
same,protease activity (fluorescence of substrate peptide),[21],Uncleaved peptides C23 (RDAQAHPG)
same,protease activity (fluorescence of substrate peptide),[22],Cleaved peptides H01 (RKKRSTKK)
same,protease activity (fluorescence of substrate peptide),[23],Uncleaved peptides A05 (SYRKVLGQ)
same,protease activity (fluorescence of substrate peptide),[24],Cleaved peptides O23 (KNVAMQKG)
same,protease activity (fluorescence of substrate peptide),[25],Uncleaved peptides A10 (SAARPAPP)
same,protease activity (fluorescence of substrate peptide),[26],Cleaved peptides H07 (RVKRQVRS)
same,protease activity (fluorescence of substrate peptide),[27],Cleaved peptides G24 (RRKRSTRE)
same,protease activity (fluorescence of substrate peptide),[28],Uncleaved peptides B11 (AAGVAPLS)
same,protease activity (fluorescence of substrate peptide),[29],Uncleaved peptides M16 (RSRREADL)
same,protease activity (fluorescence of substrate peptide),[30],Cleaved peptides C16 (RVLGLKAH)
same,protease activity (fluorescence of substrate peptide),[31],Cleaved peptides A09 (RMRRYADA)
same,protease activity (fluorescence of substrate peptide),[32],Cleaved peptides B20 (PQRFGRNT)
same,protease activity (fluorescence of substrate peptide),[33],Uncleaved peptides A01 (WQGGRRKF)
same,protease activity (fluorescence of substrate peptide),[34],Uncleaved peptides M18 (VHRDMAAR)
same,protease activity (fluorescence of substrate peptide),[35],Uncleaved peptides H02 (RAKRSVHF)
same,protease activity (fluorescence of substrate peptide),[36],Cleaved peptides O16 (AATRRQAV)
same,protease activity (fluorescence of substrate peptide),[37],Uncleaved peptides J03 (PQLHSTGG)
same,protease activity (fluorescence of substrate peptide),[38],Cleaved peptides N17 (RKRRAVLT)
same,protease activity (fluorescence of substrate peptide),[39],Cleaved peptides H11 (RRLLRAIP)
same,protease activity of rCRISPA,[40]; purified using known procedures without DANA present,lacking protease activity
same,protease activity of rCRISPA,[40]; purified with DANA present,with protease activity
